The labels stand for the following.
B1: SPSB4 (parent)
chain: LDMDEGTLSFIVDGQYLGVAFRGL
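Note: lentivirally expressed fusions sorted by FACS into six bins by GFP to DsRed ratio, PSI derived from sequencing read proportions per bin multiplied by bin number.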

In the series the parent is B1. Nature of the series: protein stability index of a GFP-peptide fusion (GPS, HEK-293T) (PSI 1-6); higher = more stable. Particulars: c terminus: a fixed tail appended.
As for LDMDEGTLSFIVDGQYLGVATRGL [F21T], the protein stability index amounted to 2.04.

For LDMDEGTLSFIVDGQYLGVAPRGL [F21P], the protein stability index came out at 1.89.

Regarding LDMDEGTLSFIVDGQYLGVAGRGL [F21G], the protein stability index was determined as 1.76.

In the case of LDMDEGTLSFIVDGQYLGVASRGL [F21S], the protein stability index came to 2.18.

In the case of LDMDEGTLSFIVDGQYLGVAVRGL [F21V], the protein stability index was 2.46.

Take LDMDEGTLSFIVDGQYLGVAIRGL [F21I]: the protein stability index worked out at 2.95.

As to LDMDEGTLSFIVDGQYLGVACRGL [F21C], the protein stability index stood at 1.62.

In the case of LDMDEGTLSFIVDGQYLGVALRGL [F21L], the protein stability index was found to be 1.8.

For the variant LDMDEGTLSFIVDGQYLGVAHRGL [F21H], the protein stability index was determined as 1.72.

Consider LDMDEGTLSFIVDGQYLGVAERGL [F21E], for which the protein stability index came to 1.96.

For the variant LDMDEGTLSFIVDGQYLGVAKRGL [F21K], the protein stability index worked out at 2.39.

For the variant LDMDEGTLSFIVDGQYLGVAARGL [F21A], the protein stability index came to 1.7.

As to LDMDEGTLSFIVDGQYLGVAMRGL [F21M], the protein stability index stood at 1.43.

With LDMDEGTLSFIVDGQYLGVARRGL [F21R], the protein stability index amounted to 1.65.

As to LDMDEGTLSFIVDGQYLGVAQRGL [F21Q], the protein stability index was 1.98.

Turning to LDMDEGTLSFIVDGQYLGVANRGL [F21N], the protein stability index is 1.98.

For LDMDEGTLSFIVDGQYLGVAWRGL [F21W], the protein stability index amounted to 2.48.

As to LDMDEGTLSFIVDGQYLGVAYRGL [F21Y], the protein stability index was determined as 2.27.

As for LDMDEGTLSFIVDGQYLGVADRGL [F21D], the protein stability index came to 2.31.

As for LDMDEGTLSFIVDGQYLSVAFRGL [G18S], the protein stability index was 2.8.

LDMDEGTLSFIVDGQYLPVAFRGL [G18P]: the protein stability index stood at 1.26.

On to LDMDEGTLSFIVDGQYLWVAFRGL [G18W], for which the protein stability index is 1.91.

As for LDMDEGTLSFIVDGQYLVVAFRGL [G18V], the protein stability index was 2.45.

Consider LDMDEGTLSFIVDGQYLHVAFRGL [G18H], for which the protein stability index stood at 2.93.

LDMDEGTLSFIVDGQYLQVAFRGL [G18Q]: the protein stability index is 1.42.

Regarding LDMDEGTLSFIVDGQYLMVAFRGL [G18M], the protein stability index came out at 2.85.

Consider LDMDEGTLSFIVDGQYLIVAFRGL [G18I], for which the protein stability index came out at 4.2.

Turning to LDMDEGTLSFIVDGQYLLVAFRGL [G18L], the protein stability index came out at 2.31.

With LDMDEGTLSFIVDGQYLYVAFRGL [G18Y], the protein stability index was 3.25.

LDMDEGTLSFIVDGQYLTVAFRGL [G18T]: the protein stability index stood at 3.06.

For the variant LDMDEGTLSFIVDGQYLNVAFRGL [G18N], the protein stability index turned out to be 2.19.

For LDMDEGTLSFIVDGQYLRVAFRGL [G18R], the protein stability index is 2.38.

As for LDMDEGTLSFIVDGQYLKVAFRGL [G18K], the protein stability index was found to be 1.8.

With LDMDEGTLSFIVDGQYLGVAFRDL [G23D], the protein stability index was 1.84.

As for LDMDEGTLSFIVDGQYLGVAFREL [G23E], the protein stability index worked out at 2.42.

With LDMDEGTLSFIVDGQYLGVAFRFL [G23F], the protein stability index is 1.96.

LDMDEGTLSFIVDGQYLGVAFRCL [G23C]: the protein stability index turned out to be 1.86.

In the case of LDMDEGTLSFIVDGQYLGVAFRHL [G23H], the protein stability index came out at 2.5.

On to LDMDEGTLSFIVDGQYLGVAFRAL [G23A], for which the protein stability index was 1.31.

For the variant LDMDEGTLSFIVDGQYLGVAFMGL [R22M], the protein stability index was 1.99.

Consider LDMDEGTLSFIVDGQYLGVAFGGL [R22G], for which the protein stability index worked out at 2.69.

Consider LDMDEGTLSFIVDGQYLGVAFPGL [R22P], for which the protein stability index was 2.25.

Turning to LDMDEGTLSFIVDGQYLGVAFCGL [R22C], the protein stability index is 2.55.

Consider LDMDEGTLSFIVDGQYLGVAFDGL [R22D], for which the protein stability index was 2.41.

As for LDMDEGTLSFIVDGQYLGVAFAGL [R22A], the protein stability index was 3.

LDMDEGTLSFIVDGQYLGVAFQGL [R22Q]: the protein stability index was 2.1.

Take LDMDEGTLSFIVDGQYLGVAFHGL [R22H]: the protein stability index was 3.23.

Regarding LDMDEGTLSFIVDGQYLGVAFFGL [R22F], the protein stability index was 2.57.

Take LDMDEGTLSFIVDGQYLGVAFSGL [R22S]: the protein stability index worked out at 2.46.

On to LDMDEGTLSFIVDGQYLGVAFIGL [R22I], for which the protein stability index worked out at 2.24.

Take LDMDEGTLSFIVDGQYLGVAFWGL [R22W]: the protein stability index stood at 1.31.

For LDMDEGTLSFIVDGQYLGVAFYGL [R22Y], the protein stability index came out at 3.56.

On to LDMDEGTLSFIVDGQYLGVAFTGL [R22T], for which the protein stability index came to 4.1.

For the variant LDMDEGTLSFIVDGQYLGVAFKGL [R22K], the protein stability index is 2.01.

On to LDMDEGTLSFIVDGQYLGVAFNGL [R22N], for which the protein stability index is 2.46.

In the case of LDMDEGTLSFIVDGQYLGVAFEGL [R22E], the protein stability index was found to be 2.05.

In the case of LDMDEGTLSFIVDGQYLGVAFLGL [R22L], the protein stability index came to 1.81.

For LDMDEGTLSFIVDGQYLGMAFRGL [V19M], the protein stability index amounted to 2.32.

Take LDMDEGTLSFIVDGQYLGFAFRGL [V19F]: the protein stability index is 2.31.

In the case of LDMDEGTLSFIVDGQYLGHAFRGL [V19H], the protein stability index came out at 2.07.

In the case of LDMDEGTLSFIVDGQYLGGAFRGL [V19G], the protein stability index was determined as 2.18.

As for LDMDEGTLSFIVDGQYLGEAFRGL [V19E], the protein stability index was determined as 1.85.

For LDMDEGTLSFIVDGQYLGNAFRGL [V19N], the protein stability index was found to be 1.98.

Take LDMDEGTLSFIVDGQYLGQAFRGL [V19Q]: the protein stability index was found to be 1.94.

On to LDMDEGTLSFIVDGQYLGRAFRGL [V19R], for which the protein stability index stood at 2.04.

LDMDEGTLSFIVDGQYLGSAFRGL [V19S]: the protein stability index worked out at 1.66.

Consider LDMDEGTLSFIVDGQYLGPAFRGL [V19P], for which the protein stability index was 2.43.

Turning to LDMDEGTLSFIVDGQYLGWAFRGL [V19W], the protein stability index is 2.04.

In the case of LDMDEGTLSFIVDGQYLGCAFRGL [V19C], the protein stability index worked out at 2.33.

With LDMDEGTLSFIVDGQYLGTAFRGL [V19T], the protein stability index worked out at 2.1.

On to LDMDEGTLSFIVDGQYLGYAFRGL [V19Y], for which the protein stability index was 2.49.

On to LDMDEGTLSFIVDGQYLGAAFRGL [V19A], for which the protein stability index is 1.97.

Consider LDMDEGTLSFIVDGQYLGDAFRGL [V19D], for which the protein stability index stood at 1.99.

As for LDMDEGTLSFIVDGQYLGIAFRGL [V19I], the protein stability index worked out at 2.77.

In the case of LDMDEGTLSFIVDGQYLGKAFRGL [V19K], the protein stability index amounted to 2.1.

For the variant LDMDEGTLSFIVDGQYLGLAFRGL [V19L], the protein stability index is 1.94.

As for LDMDEGTLSFIVDGQYLGVHFRGL [A20H], the protein stability index was 1.89.

As to LDMDEGTLSFIVDGQYLGVEFRGL [A20E], the protein stability index worked out at 1.88.

LDMDEGTLSFIVDGQYLGVYFRGL [A20Y]: the protein stability index amounted to 2.4.

On to LDMDEGTLSFIVDGQYLGVMFRGL [A20M], for which the protein stability index came to 2.48.

Consider LDMDEGTLSFIVDGQYLGVGFRGL [A20G], for which the protein stability index is 2.38.

In the case of LDMDEGTLSFIVDGQYLGVVFRGL [A20V], the protein stability index was 3.1.

In the case of LDMDEGTLSFIVDGQYLGVLFRGL [A20L], the protein stability index was 2.51.

On to LDMDEGTLSFIVDGQYLGVIFRGL [A20I], for which the protein stability index came out at 2.13.

For the variant LDMDEGTLSFIVDGQYLGVSFRGL [A20S], the protein stability index came to 2.

As for LDMDEGTLSFIVDGQYLGVQFRGL [A20Q], the protein stability index is 1.86.

As to LDMDEGTLSFIVDGQYLGVWFRGL [A20W], the protein stability index stood at 2.61.

For LDMDEGTLSFIVDGQYLGVRFRGL [A20R], the protein stability index amounted to 2.47.

As for LDMDEGTLSFIVDGQYLGVPFRGL [A20P], the protein stability index turned out to be 1.55.

Consider LDMDEGTLSFIVDGQYLGVCFRGL [A20C], for which the protein stability index is 2.13.

With LDMDEGTLSFIVDGQYLGVDFRGL [A20D], the protein stability index was 1.63.

For the variant LDMDEGTLSFIVDGQYLGVTFRGL [A20T], the protein stability index turned out to be 2.03.

In the case of LDMDEGTLSFIVDGQYLGVKFRGL [A20K], the protein stability index was determined as 2.11.

As to LDMDEGTLSFIVDGQYLGVNFRGL [A20N], the protein stability index amounted to 1.68.

The values are drawn from the supplement of paper PMC10567573.
